T1: hFcgRIIb (human, UniProt P31994 43-217)
T1 construct: extracellular domain; also called human FcγRIIb
T1 sequence (looked up): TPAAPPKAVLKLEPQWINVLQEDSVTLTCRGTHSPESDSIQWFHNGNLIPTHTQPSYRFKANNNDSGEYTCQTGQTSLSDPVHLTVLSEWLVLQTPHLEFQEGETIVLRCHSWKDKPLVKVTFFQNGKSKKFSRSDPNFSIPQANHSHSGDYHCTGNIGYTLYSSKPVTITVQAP

T2: hFcgRIIaH (human, UniProt P12318 34-217)
T2 construct: extracellular domain; also called human FcγRIIa type H (H131)
T2 sequence (looked up): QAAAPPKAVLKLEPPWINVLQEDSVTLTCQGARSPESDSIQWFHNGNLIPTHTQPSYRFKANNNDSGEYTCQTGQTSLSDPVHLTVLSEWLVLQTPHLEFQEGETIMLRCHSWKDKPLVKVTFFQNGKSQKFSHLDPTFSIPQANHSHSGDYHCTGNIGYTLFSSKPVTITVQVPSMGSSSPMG

T3: hFcgRIIaR (human, UniProt P12318 34-217)
T3 construct: extracellular domain; also called human FcγRIIa type R (R131)
T3 sequence (looked up): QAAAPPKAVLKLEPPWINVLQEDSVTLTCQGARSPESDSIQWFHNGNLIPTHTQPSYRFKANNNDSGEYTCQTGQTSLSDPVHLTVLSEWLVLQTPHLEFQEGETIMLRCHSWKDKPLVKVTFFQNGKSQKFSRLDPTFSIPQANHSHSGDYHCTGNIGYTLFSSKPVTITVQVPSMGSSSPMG

B1: A375-G1T3/B167-Lamlib (antibody, human IgG1, lambda)
heavy: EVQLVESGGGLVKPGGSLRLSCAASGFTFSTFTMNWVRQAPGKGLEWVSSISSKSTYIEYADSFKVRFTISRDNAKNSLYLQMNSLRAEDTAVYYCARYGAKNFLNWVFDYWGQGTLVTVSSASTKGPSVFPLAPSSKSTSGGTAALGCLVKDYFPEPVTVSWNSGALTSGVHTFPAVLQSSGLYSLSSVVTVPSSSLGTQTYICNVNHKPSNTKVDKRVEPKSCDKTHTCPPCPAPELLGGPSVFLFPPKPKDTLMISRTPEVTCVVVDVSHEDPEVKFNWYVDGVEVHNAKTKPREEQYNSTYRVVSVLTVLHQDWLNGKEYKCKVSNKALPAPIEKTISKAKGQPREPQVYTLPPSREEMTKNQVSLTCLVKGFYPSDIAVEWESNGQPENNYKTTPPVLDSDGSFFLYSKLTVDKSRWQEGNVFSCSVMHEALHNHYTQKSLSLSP
light: QSALTQPPSASGSPGQTVTISCTGTRYDVGYYEYVSWYQQHPGKAPKLMIYETSKRLSGVPDRFSGSKSGNTASLTVSGLQAEDEADYYCSSYRYEHQVSFGGGTKLTVLGQPKAAPSVTLFPPSSEELQANKATLVCLISDFYPGAVTVAWKADSSPVKAGVETTTPSKQSNNKYAASSYLSLTPEQWKSHRSYSCQVTHEGSTVEKTVAPTECS
notes: copies: 2 + 2
B2: A375-MY201a/B167-Lamlib (antibody, human IgG1, lambda)
heavy: EVQLVESGGGLVKPGGSLRLSCAASGFTFSTFTMNWVRQAPGKGLEWVSSISSKSTYIEYADSFKVRFTISRDNAKNSLYLQMNSLRAEDTAVYYCARYGAKNFLNWVFDYWGQGTLVTVSSASTKGPSVFPLAPSSKSTSGGTAALGCLVKDYFPEPVTVSWNSGALTSGVHTFPAVLQSSGLYSLSSVVTVPSSSLGTQTYICNVNHKPSNTKVDKRVEPKSCDKTHTCPPCPAPELLNGPSVFLFPPKPKDTLMISRTPEVTCVVVDVSDEDPEVKFNWYVDGVEVHNAKTKPREEQYNSTYRVVSVLTVLHQDWLNGKEYKCKVSNKALPKPIEKTISKAKGQPREPQVYTLPPSREEMTKNQVSLTCLVKGFYPSDIAVEWESNGQPENNYKTTPPVLDSDGSFFLYSKLTVDKSRWQQGNVFSCSVMHEALHNHYTQKSLSLSP
light: QSALTQPPSASGSPGQTVTISCTGTRYDVGYYEYVSWYQQHPGKAPKLMIYETSKRLSGVPDRFSGSKSGNTASLTVSGLQAEDEADYYCSSYRYEHQVSFGGGTKLTVLGQPKAAPSVTLFPPSSEELQANKATLVCLISDFYPGAVTVAWKADSSPVKAGVETTTPSKQSNNKYAASSYLSLTPEQWKSHRSYSCQVTHEGSTVEKTVAPTECS
notes: copies: 2 + 2
B3: A375-MY201aPh/B167-Lamlib (antibody, human IgG1, lambda)
heavy: EVQLVESGGGLVKPGGSLRLSCAASGFTFSTFTMNWVRQAPGKGLEWVSSISSKSTYIEYADSFKVRFTISRDNAKNSLYLQMNSLRAEDTAVYYCARYGAKNFLNWVFDYWGQGTLVTVSSASTKGPSVFPLAPSSKSTSGGTAALGCLVKDYFPEPVTVSWNSGALTSGVHTFPAVLQSSGLYSLSSVVTVPSSSLGTQTYICNVNHKPSNTKVDKRVEPKSCDKTHTCPPCPAPELWNGPSVFLFPPKPKDTLMISRTPEVTCVVVDVSDEDPEVKFNWYVDGVEVHNAKTKPREEQYNSTYRVVSVLTVLHQDWLNGKEYKCKVSNKALPKPIEKTISKAKGQPREPQVYTLPPSREEMTKNQVSLTCLVKGFYPSDIAVEWESNGQPENNYKTTPPVLDSDGSFFLYSKLTVDKSRWQQGNVFSCSVMHEALHNHYTQKSLSLSP
light: QSALTQPPSASGSPGQTVTISCTGTRYDVGYYEYVSWYQQHPGKAPKLMIYETSKRLSGVPDRFSGSKSGNTASLTVSGLQAEDEADYYCSSYRYEHQVSFGGGTKLTVLGQPKAAPSVTLFPPSSEELQANKATLVCLISDFYPGAVTVAWKADSSPVKAGVETTTPSKQSNNKYAASSYLSLTPEQWKSHRSYSCQVTHEGSTVEKTVAPTECS
notes: copies: 2 + 2
B4: A375-MY518/B167-Lamlib (antibody, human IgG1, lambda)
heavy: EVQLVESGGGLVKPGGSLRLSCAASGFTFSTFTMNWVRQAPGKGLEWVSSISSKSTYIEYADSFKVRFTISRDNAKNSLYLQMNSLRAEDTAVYYCARYGAKNFLNWVFDYWGQGTLVTVSSASTKGPSVFPLAPSSKSTSGGTAALGCLVKDYFPEPVTVSWNSGALTSGVHTFPAVLQSSGLYSLSSVVTVPSSSLGTQTYICNVNHKPSNTKVDKKVEPKSCDKTHTCPPCPAPELWNGPSVFLFPPKPKDTLMISRTPEVTCVVVDVSDEDPEVKFNWYVDGVEVHNAKTKPREELYNSTYRVVSVLTVLHQDWLNGKEYKCKVSNTALPKPIEKTISKAKGQPREPQVYTLPPSREEMTKNQVSLTCLVKGFYPSDIAVEWESNGQPENNYKTTPPVLDSDGSFFLYSKLTVDKSRWQQGNVFSCSVMHEALHNHYTQKSLSLSP
light: QSALTQPPSASGSPGQTVTISCTGTRYDVGYYEYVSWYQQHPGKAPKLMIYETSKRLSGVPDRFSGSKSGNTASLTVSGLQAEDEADYYCSSYRYEHQVSFGGGTKLTVLGQPKAAPSVTLFPPSSEELQANKATLVCLISDFYPGAVTVAWKADSSPVKAGVETTTPSKQSNNKYAASSYLSLTPEQWKSHRSYSCQVTHEGSTVEKTVAPTECS
notes: copies: 2 + 2
B5: A375-TT11/B167-Lamlib (antibody, human IgG1, lambda)
heavy: EVQLVESGGGLVKPGGSLRLSCAASGFTFSTFTMNWVRQAPGKGLEWVSSISSKSTYIEYADSFKVRFTISRDNAKNSLYLQMNSLRAEDTAVYYCARYGAKNFLNWVFDYWGQGTLVTVSSASTKGPSVFPLAPSSKSTSGGTAALGCLVKDYFPEPVTVSWNSGALTSGVHTFPAVLQSSGLYSLSSVVTVPSSSLGTQTYICNVNHKPSNTKVDKKVEPKSCDKTHTCPPCPAPEYLGGDSVFLFPPKPKDVLMISRTPEVTCVVVDVSHEDPEVKFNWYVDGVEVHNAKTKPREEQYNSTYRVVSVLPVLHQDWLNGKEYKCKVSNKALPKPIEKTISKAKGQPREPQVYTLPPSREEMTKNQVSLTCLVKGFYPSDIAVEWESNGQPENNYKTTPPVLDSDGSFFLYSKLTVDKSRWQQGNVFSCSVMHEALHNHYTQKSLSLSP
light: QSALTQPPSASGSPGQTVTISCTGTRYDVGYYEYVSWYQQHPGKAPKLMIYETSKRLSGVPDRFSGSKSGNTASLTVSGLQAEDEADYYCSSYRYEHQVSFGGGTKLTVLGQPKAAPSVTLFPPSSEELQANKATLVCLISDFYPGAVTVAWKADSSPVKAGVETTTPSKQSNNKYAASSYLSLTPEQWKSHRSYSCQVTHEGSTVEKTVAPTECS
notes: copies: 2 + 2

Tests used:
hFcgRIIIaV [1] = biological target: T4, hFcgRIIIaV (human, UniProt P08637 17-208); assay: SPR 25C; relative to A375-G1T3/B167-Lamlib;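 also: SPR with antibody captured on an anti-human Fab-lambda chip, human FcγR analyte at 8 nM for FcγRIa or 1000 nM for the others, pH 7.4, FcγR RU per captured antibody unit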
T4 construct: extracellular domain; also called human FcγRIIIa allotype V158
T4 sequence (P08637 17-208 F176V): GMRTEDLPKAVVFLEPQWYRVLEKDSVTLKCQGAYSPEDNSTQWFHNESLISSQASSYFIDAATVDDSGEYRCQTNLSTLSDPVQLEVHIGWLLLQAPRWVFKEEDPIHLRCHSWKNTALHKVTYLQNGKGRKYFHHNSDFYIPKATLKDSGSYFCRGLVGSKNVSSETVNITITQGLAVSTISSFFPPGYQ
Method: (§1) Biacore T200 (GE Healthcare) was used to evaluate the binding activity to the respective human Fcγ receptor (hereafter referred to as FcγR). Measurement was performed at 25° C. using 50 mM phosphate, 150 mM NaCl, 0.05 w/v %-P20, pH 7.4 as buffer. About 1000 RU of antibody was captured using a sensor chip immobilized with CaptureSelect™ Human Fab-lambda Kinetics Biotin Conjugate (Thermo Fisher Scientific) as a molecule for ligand capturing. Human FcγR was diluted to 8 nM for FcγRIa and 1000 nM for other FcγR in the measurement buffer, and it was interacted to the captured antibody. The binding activity of each antibody to FcγR was assessed by calculating the binding amount of FcγR (RU) per unit amount of antibody using Biacore T200 Evaluation Software 2.0.

hFcgRIIb [2] = biological target: T1, hFcgRIIb; assay: SPR 25C; relative to A375-G1T3/B167-Lamlib;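 also: SPR with antibody captured on an anti-human Fab-lambda chip, human FcγR analyte at 8 nM for FcγRIa or 1000 nM for the others, pH 7.4, FcγR RU per captured antibody unit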
Method: as §1

hFcgRIIaH [3] = biological target: T2, hFcgRIIaH; assay: SPR 25C; relative to A375-G1T3/B167-Lamlib;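 also: SPR with antibody captured on an anti-human Fab-lambda chip, human FcγR analyte at 8 nM for FcγRIa or 1000 nM for the others, pH 7.4, FcγR RU per captured antibody unit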
Method: as §1

hFcgRIIIaF [4] = biological target: T5, hFcgRIIIaF (human, UniProt P08637 17-208); assay: SPR 25C; relative to A375-G1T3/B167-Lamlib;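 also: SPR with antibody captured on an anti-human Fab-lambda chip, human FcγR analyte at 8 nM for FcγRIa or 1000 nM for the others, pH 7.4, FcγR RU per captured antibody unit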
T5 construct: extracellular domain; also called human FcγRIIIa allotype F158
T5 sequence (P08637 17-208): as the sequence (P08637 17-208 F176V) above, with V160F counted along it
Method: as §1

hFcgRIIaR [5] = biological target: T3, hFcgRIIaR; assay: SPR 25C; relative to A375-G1T3/B167-Lamlib
Method: as §1

hFcgRIa [6] = biological target: T6, hFcgRIa (human, UniProt P12314 16-292); assay: SPR 25C; relative to A375-G1T3/B167-Lamlib
T6 construct: extracellular domain; also called human FcγRIa; FcγRI
T6 sequence (P12314 16-292): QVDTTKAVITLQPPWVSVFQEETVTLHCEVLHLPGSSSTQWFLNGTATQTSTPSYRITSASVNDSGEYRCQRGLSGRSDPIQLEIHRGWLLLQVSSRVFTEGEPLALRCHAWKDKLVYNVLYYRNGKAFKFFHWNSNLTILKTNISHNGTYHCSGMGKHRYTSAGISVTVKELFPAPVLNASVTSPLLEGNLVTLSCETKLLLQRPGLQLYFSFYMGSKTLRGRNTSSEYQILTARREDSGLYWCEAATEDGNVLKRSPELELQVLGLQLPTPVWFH
Method: as §1

human FcRn = human FcRn (human, UniProt P55899 24-290; P61769 21-119, limits assumed); assay: SPR 25C pH 6.0, steady state;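 also: antibody captured on chip via anti-human Fab-lambda ligand, human FcRn injected as analyte in 50 mM phosphate buffer with 150 mM NaCl and P20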
Chain of human FcRn (P55899 24-290 limits assumed, chain 1 of 2): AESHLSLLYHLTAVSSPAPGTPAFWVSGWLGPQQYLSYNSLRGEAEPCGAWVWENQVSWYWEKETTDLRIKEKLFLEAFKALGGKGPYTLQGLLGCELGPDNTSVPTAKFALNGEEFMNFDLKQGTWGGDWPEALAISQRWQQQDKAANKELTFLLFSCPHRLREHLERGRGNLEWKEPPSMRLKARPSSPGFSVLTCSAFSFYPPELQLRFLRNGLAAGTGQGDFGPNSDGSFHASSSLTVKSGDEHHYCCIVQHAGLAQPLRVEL
Chain of human FcRn (P61769 21-119 limits assumed, chain 2 of 2): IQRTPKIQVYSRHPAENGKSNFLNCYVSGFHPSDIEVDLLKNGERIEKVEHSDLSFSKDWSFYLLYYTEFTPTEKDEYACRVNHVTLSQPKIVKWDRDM

hFcgRIIIaV [7] = biological target: T4, hFcgRIIIaV; assay: SPR 25C
Method: as §1

hFcgRIIb [8] = biological target: T1, hFcgRIIb; assay: SPR 25C
Method: as §1

hFcgRIIaH [9] = biological target: T2, hFcgRIIaH; assay: SPR 25C
Method: as §1

hFcgRIIIaF [10] = biological target: T5, hFcgRIIIaF; assay: SPR 25C
Method: as §1

hFcgRIIaR [11] = biological target: T3, hFcgRIIaR; assay: SPR 25C
Method: as §1

hFcgRIa [12] = biological target: T6, hFcgRIa; assay: SPR 25C
Method: as §1
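For binding per 1RU of antibody in this document: biacore SPR with antibody captured on an anti-human Fab lambda chip, human FcγR injected at 1000 nM (FcγRIa at 8 nM) in pH 7.4 phosphate buffer.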

Row | Binder | relative binding amount (hFcgRIIIaV [1]) | relative binding amount (hFcgRIIb [2]) | relative binding amount (hFcgRIIaH [3]) | relative binding amount (hFcgRIIIaF [4]) | relative binding amount (hFcgRIIaR [5]) | relative binding amount (hFcgRIa [6]) | Kd (human FcRn) | binding per 1RU of antibody (hFcgRIIIaV [7]) | binding per 1RU of antibody (hFcgRIIb [8]) | binding per 1RU of antibody (hFcgRIIaH [9]) | binding per 1RU of antibody (hFcgRIIIaF [10]) | binding per 1RU of antibody (hFcgRIIaR [11]) | binding per 1RU of antibody (hFcgRIa [12])
1 | B1 | 1 | 1 | 1 | 1 | 1 | 1 | 1270 nM | 0.07 RU | 0.011 RU | 0.0567 RU | 0.0213 RU | 0.0463 RU | 0.0813 RU
2 | B2 | 0.03 | 3.66 | 0.94 | 0.04 | 0.73 | 0.49 | 1190 nM | 0.0024 RU | 0.0401 RU | 0.0534 RU | 0.0007 RU | 0.0338 RU | 0.0396 RU
3 | B3 | 0.02 | 2.85 | 0.58 | 0.03 | 0.72 | 0.05 | 1180 nM | 0.0011 RU | 0.0313 RU | 0.0328 RU | 0.0007 RU | 0.0335 RU | 0.004 RU
4 | B4 | 0.02 | 4.4 | 0.82 | 0.04 | 0.99 | 0.02 | 1270 nM | 0.0015 RU | 0.0482 RU | 0.0466 RU | 0.0009 RU | 0.046 RU | 0.002 RU
5 | B5 | -0.01 | 4.35 | 0.03 | -0.04 | – | – | 1560 nM | -0.001 RU | 0.0477 RU | 0.002 RU | -0.0009 RU | – | –
